Data on two molecules can be found in patent US20240288440A1 (MACFARLANE BURNET INSTITUTE FOR MEDICAL RESEARCH AND PUBLIC …, published 2024).

B1: CB6-IgA2 (monomeric chimeric IgA2 of monoclonal antibody CB6) (antibody)
heavy: ASEVQLVESGGGLVQPGGSLRLSCAASGFTVSSNYMSWVRQAPGKGLEWVSVIYSGGSTFYADSVKGRFTISRDNSMNTLFLQMNSLRAEDTAVYYCARVLPMYGDYLDYWGQGTLVTVSSASTKGPSVFPLAPSSKSTSGASPTSPKVFPLSLDSTPQDGNVVVACLVQGFFPQEPLSVTWSESGQNVTARNFPPSQDASGDLYTTSSQLTLPATQCPDGKSVTCHVKHYTNPSQDVTVPCPVPPPPPCCHPRLSLHRPALEDLLLGSEANLTCTLTGLRDASGATFTWTPSSGKSAVQGPPERDLCGCYSVSSVLPGCAQPWNHGETFTCTAAHPELKTPLTANITKSGNTFRPEVHLLPPPSEELALNELVTLTCLARGFSPKDVLVRWLQGSQELPREKYLTWASRQEPSQGTTTFAVTSILRVAAEDWKKGDTFSCMVGHEALPLAFTQKTIDRLAGKPTHVNVSVVMAEVDGTCY
light: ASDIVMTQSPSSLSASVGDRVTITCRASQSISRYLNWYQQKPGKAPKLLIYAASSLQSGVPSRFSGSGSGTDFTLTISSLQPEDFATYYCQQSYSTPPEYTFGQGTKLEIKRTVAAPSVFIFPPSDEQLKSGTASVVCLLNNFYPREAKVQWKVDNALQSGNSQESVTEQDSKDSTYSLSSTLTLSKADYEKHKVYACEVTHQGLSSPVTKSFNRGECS
notes: also called monomeric CB6-IgA2
B2: chimeric secretory component (CSC) of the polymeric immunoglobulin receptor (receptor)
chain: QSSLLGPSSIFGPGEVNVLEGDSVSITCYYPTTSVTRHSRKFWCREEESGRCVTLASTGYTSQEYSGRGKLTDFPDKGEFVVTVDQLTQNDSGSYKCGVGVNGRGLDFGVNVLVSQKPELLNDTKVYTVDLGRTVTINCPFKTENAQKRKSLYKQIGLYPVLVIDSSGYVNPNYTGRIRLDIQGTGQLLFSVVINQLRLSDAGQYLCQAGDDSNSNKKNADLQVLKPEPELVYEDLRGSVTFHCALGPEVANVAKFLCRQSSGENCDVVVNTLGKRAPAFEGRILLNPQDKDGSFSVVITGLRKEDAGRYLCGAHSDGQLQEGSPIQAWQLFVNEESTIPRSPTVVKGVAGGSVAVLCPYNRKESKSIKYWCLWEGAQNGRCPLLVDSEGWVKAQYEGRLSLLEEPGNGTFTVILNQLTSRDAGFYWCLTNGDTLWRTTVEIKIIEGEPNLKVPGNVTAVLGETLKVPCHFPCKFSSYEKYWCKWNNTGCQALPSQDEGPSKAFVNCDENSRLVSLTLNLVTRADEGWYWCGVKQGHFYGETAAVYVAVEERKAAGSRDVSLAKADAAPDEKVLDSGFREIENKAIQDPRLFAEEKAVADTRDQADGSRASVDSGSSEEQGGSSRR
notes: also called R/HpIgR; chimeric pIgR; not shown: C-terminal 6 histidine tag

Assay [1] addresses B2. The assay can be described thus: lateral flow assay, CSC test line, detection with RBD-biotin/streptavidin gold.
Another assay deals with purified IgG. The assay can be described thus: pull-down on CSC beads, reducing SDS-PAGE, bands quantitated.
Another assay concerns the target T1, purified IgM.
T1 construct: also called pentameric IgM
The assay is described as above.

Turning to B1, in assay [1], the binding result is recorded as “no binding (tested: 100 µg/ml)”.

Turning to B2, the percent bound with purified IgG and with purified IgM was approximately 20% in each case.
